Measured values: publication PMC9482650, “Quantitative fragmentomics allow affinity mapping of interactomes” (Nature Communications, 2022)

The binders below were run against T1, ARHGEF11, O15085 (assay: holdup assay). Conditions: plain residues with an end cap or a label only (N-terminal biotin on a linker: ado-ado).
T1 sequence (O15085 42-136, limits assumed, looked up): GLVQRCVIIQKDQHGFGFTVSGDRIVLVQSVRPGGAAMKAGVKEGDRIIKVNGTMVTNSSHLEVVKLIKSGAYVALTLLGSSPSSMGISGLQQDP
Design: key: below the threshold = too weak to quantify, mostly under pKd 3.1 to 4
Binder REEPDHSTEV [CCRL2, O00421] has a pKd of 4.77. With QSYPSKHDYV [CLDN18, P56856] the pKd was 3.81.

These binders were tested against CASK, O14936 (assay: holdup assay). Conditions: plain residues with an end cap or a label only (N-terminal biotin on a linker: ado-ado).
CASK, O14936, sequence (O14936 487-570): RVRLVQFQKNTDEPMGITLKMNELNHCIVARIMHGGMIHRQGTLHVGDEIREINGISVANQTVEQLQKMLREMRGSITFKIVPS
Design: key: below the threshold = too weak to quantify, mostly under pKd 3.1 to 4
With REEPDHSTEV [CCRL2, O00421] the pKd was “below the threshold”. In the case of QSYPSKHDYV [CLDN18, P56856], the pKd is reported as “below the threshold”.

What follows are binders tested against T2, DFNB31_1, Q9P202 (assay: holdup assay). Conditions: plain residues with an end cap or a label only (N-terminal biotin on a linker: ado-ado).
T2 sequence (Q9P202 135-233, limits assumed, looked up): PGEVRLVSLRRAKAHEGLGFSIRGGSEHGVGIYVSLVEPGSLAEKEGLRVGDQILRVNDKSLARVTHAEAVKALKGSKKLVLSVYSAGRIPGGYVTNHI
Design: key: below the threshold = too weak to quantify, mostly under pKd 3.1 to 4
REEPDHSTEV [CCRL2, O00421] was tested, and the pKd was 4.03. QSYPSKHDYV [CLDN18, P56856] gave a pKd of 3.49.

What follows are binders tested against T3, DFNB31_2, Q9P202 (assay: holdup assay). Conditions: plain residues with an end cap or a label only (N-terminal biotin on a linker: ado-ado).
T3 sequence (Q9P202 274-371, limits assumed, looked up): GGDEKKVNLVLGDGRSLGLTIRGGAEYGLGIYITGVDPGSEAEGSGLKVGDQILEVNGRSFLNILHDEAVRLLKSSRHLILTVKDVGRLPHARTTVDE
Design: key: below the threshold = too weak to quantify, mostly under pKd 3.1 to 4
For REEPDHSTEV [CCRL2, O00421], the pKd was “below the threshold”. QSYPSKHDYV [CLDN18, P56856] was tested, and the pKd was “below the threshold”.

What follows are binders tested against DLG1_2, Q12959 (assay: holdup assay). Conditions: plain residues with an end cap or a label only (N-terminal biotin on a linker: ado-ado).
DLG1_2, Q12959, sequence (Q12959 314-412): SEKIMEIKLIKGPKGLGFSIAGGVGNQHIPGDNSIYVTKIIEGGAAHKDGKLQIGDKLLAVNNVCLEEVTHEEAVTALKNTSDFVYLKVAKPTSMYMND
Design: key: below the threshold = too weak to quantify, mostly under pKd 3.1 to 4
In the case of REEPDHSTEV [CCRL2, O00421], the pKd is reported as 4.77. QSYPSKHDYV [CLDN18, P56856] was tested, and the pKd was 3.71.

The binders below were run against DLG5_1, Q8TDM6 (assay: holdup assay). Conditions: plain residues with an end cap or a label only (N-terminal biotin on a linker: ado-ado).
DLG5_1, Q8TDM6, sequence (Q8TDM6 617-713): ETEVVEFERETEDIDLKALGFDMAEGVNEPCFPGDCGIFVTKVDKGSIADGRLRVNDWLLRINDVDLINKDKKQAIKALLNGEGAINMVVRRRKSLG
Design: key: below the threshold = too weak to quantify, mostly under pKd 3.1 to 4
Binder REEPDHSTEV [CCRL2, O00421] has a pKd of 3.63. QSYPSKHDYV [CLDN18, P56856] was tested, and the pKd was “below the threshold”.

These binders were tested against FRMPD2_1, Q68DX3 (assay: holdup assay). Conditions: plain residues with an end cap or a label only (N-terminal biotin on a linker: ado-ado).
FRMPD2_1, Q68DX3, sequence (Q68DX3 770-861): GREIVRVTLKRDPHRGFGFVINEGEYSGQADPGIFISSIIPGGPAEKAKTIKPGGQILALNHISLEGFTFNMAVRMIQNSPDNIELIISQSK
Design: key: below the threshold = too weak to quantify, mostly under pKd 3.1 to 4
For REEPDHSTEV [CCRL2, O00421], the pKd was “below the threshold”. With QSYPSKHDYV [CLDN18, P56856] the pKd was “below the threshold”.

What follows are binders tested against FRMPD3, Q5JV73 (assay: holdup assay). Conditions: plain residues with an end cap or a label only (N-terminal biotin on a linker: ado-ado).
FRMPD3, Q5JV73, sequence (Q5JV73 12-100): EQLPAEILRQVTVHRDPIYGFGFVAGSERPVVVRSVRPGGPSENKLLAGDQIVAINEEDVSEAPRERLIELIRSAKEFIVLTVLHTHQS
Design: key: below the threshold = too weak to quantify, mostly under pKd 3.1 to 4
Work on REEPDHSTEV [CCRL2, O00421] yielded a pKd of 3.6. With QSYPSKHDYV [CLDN18, P56856] the pKd was “below the threshold”.

What follows are binders tested against GIPC2, Q8TF65 (assay: holdup assay). Conditions: plain residues with an end cap or a label only (N-terminal biotin on a linker: ado-ado).
GIPC2, Q8TF65, sequence (Q8TF65 112-203): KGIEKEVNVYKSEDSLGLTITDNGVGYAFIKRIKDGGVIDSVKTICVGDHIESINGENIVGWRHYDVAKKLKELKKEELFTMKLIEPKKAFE
Design: key: below the threshold = too weak to quantify, mostly under pKd 3.1 to 4
REEPDHSTEV [CCRL2, O00421] was tested, and the pKd was 4.01. With QSYPSKHDYV [CLDN18, P56856] the pKd was “below the threshold”.

What follows are binders tested against T4, GRIP1_3, Q9Y3R0 (assay: holdup assay). Conditions: plain residues with an end cap or a label only (N-terminal biotin on a linker: ado-ado).
T4 sequence (Q9Y3R0 247-346, limits assumed, looked up): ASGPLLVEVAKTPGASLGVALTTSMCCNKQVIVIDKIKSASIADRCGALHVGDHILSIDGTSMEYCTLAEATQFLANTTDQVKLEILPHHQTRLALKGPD
Design: key: below the threshold = too weak to quantify, mostly under pKd 3.1 to 4
For REEPDHSTEV [CCRL2, O00421], the pKd was “below the threshold”. QSYPSKHDYV [CLDN18, P56856] was tested, and the pKd was “below the threshold”.

These binders were tested against GRIP2_7, Q9C0E4 (assay: holdup assay). Conditions: plain residues with an end cap or a label only (N-terminal biotin on a linker: ado-ado).
GRIP2_7, Q9C0E4, sequence (Q9C0E4 934-1023): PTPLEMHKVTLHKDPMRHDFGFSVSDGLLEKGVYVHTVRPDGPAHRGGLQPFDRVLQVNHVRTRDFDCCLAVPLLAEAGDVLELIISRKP
Design: key: below the threshold = too weak to quantify, mostly under pKd 3.1 to 4
With REEPDHSTEV [CCRL2, O00421] the pKd was “below the threshold”. With QSYPSKHDYV [CLDN18, P56856] the pKd was “below the threshold”.

Each binder was assayed against Inadl_5, Q8NI35 (assay: holdup assay). Conditions: plain residues with an end cap or a label only (N-terminal biotin on a linker: ado-ado).
Inadl_5, Q8NI35, sequence (Q8NI35 673-780): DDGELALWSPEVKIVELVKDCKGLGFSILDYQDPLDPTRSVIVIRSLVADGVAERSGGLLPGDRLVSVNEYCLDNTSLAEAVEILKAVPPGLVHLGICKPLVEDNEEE
Design: key: below the threshold = too weak to quantify, mostly under pKd 3.1 to 4
For REEPDHSTEV [CCRL2, O00421], the pKd was “below the threshold”. Binder QSYPSKHDYV [CLDN18, P56856] has a pKd of 3.57.

What follows are binders tested against T5, LIN7C, Q9NUP9 (assay: holdup assay). Conditions: plain residues with an end cap or a label only (N-terminal biotin on a linker: ado-ado).
T5 sequence (Q9NUP9 88-185, limits assumed, looked up): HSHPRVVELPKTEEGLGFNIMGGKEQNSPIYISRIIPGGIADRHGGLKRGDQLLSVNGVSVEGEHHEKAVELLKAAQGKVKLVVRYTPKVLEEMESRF
Design: key: below the threshold = too weak to quantify, mostly under pKd 3.1 to 4
For REEPDHSTEV [CCRL2, O00421], the pKd was “below the threshold”. With QSYPSKHDYV [CLDN18, P56856] the pKd was “below the threshold”.

These binders were tested against T6, LNX2_3, Q8N448 (assay: holdup assay). Conditions: plain residues with an end cap or a label only (N-terminal biotin on a linker: ado-ado).
T6 sequence (Q8N448 463-564, limits assumed, looked up): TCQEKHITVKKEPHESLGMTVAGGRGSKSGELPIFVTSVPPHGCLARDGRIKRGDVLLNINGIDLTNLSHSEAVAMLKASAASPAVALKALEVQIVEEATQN
Design: key: below the threshold = too weak to quantify, mostly under pKd 3.1 to 4
In the case of REEPDHSTEV [CCRL2, O00421], the pKd is reported as “below the threshold”. QSYPSKHDYV [CLDN18, P56856] was tested, and the pKd was “below the threshold”.

What follows are binders tested against MAGI1_2, Q96QZ7 (assay: holdup assay). Conditions: plain residues with an end cap or a label only (N-terminal biotin on a linker: ado-ado).
MAGI1_2, Q96QZ7, sequence (Q96QZ7 456-580): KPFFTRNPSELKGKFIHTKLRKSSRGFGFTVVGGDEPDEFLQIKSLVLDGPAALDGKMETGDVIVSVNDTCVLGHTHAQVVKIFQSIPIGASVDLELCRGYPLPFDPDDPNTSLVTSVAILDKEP
Design: key: below the threshold = too weak to quantify, mostly under pKd 3.1 to 4
In the case of REEPDHSTEV [CCRL2, O00421], the pKd is reported as “below the threshold”. In the case of QSYPSKHDYV [CLDN18, P56856], the pKd is reported as “below the threshold”.

These binders were tested against MAGI2_2, Q86UL8 (assay: holdup assay). Conditions: plain residues with an end cap or a label only (N-terminal biotin on a linker: ado-ado).
MAGI2_2, Q86UL8, sequence (Q86UL8 410-522): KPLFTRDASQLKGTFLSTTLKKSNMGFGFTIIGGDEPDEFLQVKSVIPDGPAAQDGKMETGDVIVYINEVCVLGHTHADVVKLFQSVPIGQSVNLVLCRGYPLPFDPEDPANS
Design: key: below the threshold = too weak to quantify, mostly under pKd 3.1 to 4
For REEPDHSTEV [CCRL2, O00421], the pKd was “below the threshold”. For QSYPSKHDYV [CLDN18, P56856], the pKd was “below the threshold”.

The binders below were run against MAGI2_4, Q86UL8 (assay: holdup assay). Conditions: plain residues with an end cap or a label only (N-terminal biotin on a linker: ado-ado).
MAGI2_4, Q86UL8, sequence (Q86UL8 772-865): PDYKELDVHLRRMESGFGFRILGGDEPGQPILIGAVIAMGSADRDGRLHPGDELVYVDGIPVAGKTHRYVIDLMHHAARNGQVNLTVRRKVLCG
Design: key: below the threshold = too weak to quantify, mostly under pKd 3.1 to 4
For REEPDHSTEV [CCRL2, O00421], the pKd was 3.95. In the case of QSYPSKHDYV [CLDN18, P56856], the pKd is reported as 3.68.

What follows are binders tested against MAST1, Q9Y2H9 (assay: holdup assay). Conditions: plain residues with an end cap or a label only (N-terminal biotin on a linker: ado-ado).
MAST1, Q9Y2H9, sequence (Q9Y2H9 962-1065): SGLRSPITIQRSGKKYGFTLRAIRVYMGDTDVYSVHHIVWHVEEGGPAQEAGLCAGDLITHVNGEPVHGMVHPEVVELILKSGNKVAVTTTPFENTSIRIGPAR
Design: key: below the threshold = too weak to quantify, mostly under pKd 3.1 to 4
With REEPDHSTEV [CCRL2, O00421] the pKd was 4.74. Work on QSYPSKHDYV [CLDN18, P56856] yielded a pKd of 4.

Each binder was assayed against T7, MPP2, Q14168 (assay: holdup assay). Conditions: plain residues with an end cap or a label only (N-terminal biotin on a linker: ado-ado).
T7 sequence (Q14168 180-250, limits assumed, looked up): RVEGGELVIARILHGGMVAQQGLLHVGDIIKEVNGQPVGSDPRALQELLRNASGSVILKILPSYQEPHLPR
Design: key: below the threshold = too weak to quantify, mostly under pKd 3.1 to 4
In the case of REEPDHSTEV [CCRL2, O00421], the pKd is reported as “below the threshold”. In the case of QSYPSKHDYV [CLDN18, P56856], the pKd is reported as “below the threshold”.

These binders were tested against T8, PARD3B_1, Q8TEW8 (assay: holdup assay). Conditions: plain residues with an end cap or a label only (N-terminal biotin on a linker: ado-ado).
T8 sequence (Q8TEW8 196-299, limits assumed, looked up): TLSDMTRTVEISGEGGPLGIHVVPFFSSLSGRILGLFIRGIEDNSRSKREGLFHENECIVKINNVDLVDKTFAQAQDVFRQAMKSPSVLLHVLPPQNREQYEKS
Design: key: below the threshold = too weak to quantify, mostly under pKd 3.1 to 4
REEPDHSTEV [CCRL2, O00421] was tested, and the pKd was “below the threshold”. In the case of QSYPSKHDYV [CLDN18, P56856], the pKd is reported as “below the threshold”.

What follows are binders tested against T9, RADIL, Q96JH8 (assay: holdup assay). Conditions: plain residues with an end cap or a label only (N-terminal biotin on a linker: ado-ado).
T9 sequence (Q96JH8 971-1071, limits assumed, looked up): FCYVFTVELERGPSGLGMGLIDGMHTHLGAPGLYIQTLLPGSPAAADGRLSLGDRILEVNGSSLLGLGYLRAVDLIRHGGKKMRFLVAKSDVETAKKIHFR
Design: key: below the threshold = too weak to quantify, mostly under pKd 3.1 to 4
In the case of REEPDHSTEV [CCRL2, O00421], the pKd is reported as 3.96. In the case of QSYPSKHDYV [CLDN18, P56856], the pKd is reported as 4.35.

What follows are binders tested against T10, SIPA1L2, Q9P2F8 (assay: holdup assay). Conditions: plain residues with an end cap or a label only (N-terminal biotin on a linker: ado-ado).
T10 sequence (Q9P2F8 945-1036, limits assumed, looked up): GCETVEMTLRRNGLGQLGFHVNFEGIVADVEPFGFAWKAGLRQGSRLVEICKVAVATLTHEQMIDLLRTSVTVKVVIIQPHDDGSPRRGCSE
Design: key: below the threshold = too weak to quantify, mostly under pKd 3.1 to 4
For REEPDHSTEV [CCRL2, O00421], the pKd was “below the threshold”. For QSYPSKHDYV [CLDN18, P56856], the pKd was 3.53.

What follows are binders tested against T11, SNTG2, Q9NY99 (assay: holdup assay). Conditions: plain residues with an end cap or a label only (N-terminal biotin on a linker: ado-ado).
T11 sequence (Q9NY99 68-166, limits assumed, looked up): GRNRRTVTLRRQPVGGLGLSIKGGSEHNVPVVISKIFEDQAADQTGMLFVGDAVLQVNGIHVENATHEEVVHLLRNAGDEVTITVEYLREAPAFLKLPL
Design: key: below the threshold = too weak to quantify, mostly under pKd 3.1 to 4
For REEPDHSTEV [CCRL2, O00421], the pKd was 3.73. In the case of QSYPSKHDYV [CLDN18, P56856], the pKd is reported as “below the threshold”.

The binders below were run against TJP1_2, Q07157 (assay: holdup assay). Conditions: plain residues with an end cap or a label only (N-terminal biotin on a linker: ado-ado).
TJP1_2, Q07157, sequence (Q07157 181-274): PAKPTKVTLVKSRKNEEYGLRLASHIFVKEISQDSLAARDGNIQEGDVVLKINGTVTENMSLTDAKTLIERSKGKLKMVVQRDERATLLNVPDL
Design: key: below the threshold = too weak to quantify, mostly under pKd 3.1 to 4
With REEPDHSTEV [CCRL2, O00421] the pKd was “below the threshold”. QSYPSKHDYV [CLDN18, P56856] showed a pKd of 3.61.

The binders below were run against TJP2_1, Q9UDY2 (assay: holdup assay). Conditions: plain residues with an end cap or a label only (N-terminal biotin on a linker: ado-ado).
TJP2_1, Q9UDY2, sequence (Q9UDY2 24-128): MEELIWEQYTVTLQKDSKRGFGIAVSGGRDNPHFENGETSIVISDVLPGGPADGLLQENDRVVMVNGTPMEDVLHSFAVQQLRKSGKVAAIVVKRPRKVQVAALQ
Design: key: below the threshold = too weak to quantify, mostly under pKd 3.1 to 4
For REEPDHSTEV [CCRL2, O00421], the pKd was “below the threshold”. In the case of QSYPSKHDYV [CLDN18, P56856], the pKd is reported as 4.16.

These binders were tested against T12, TJP3_3, O95049 (assay: holdup assay). Conditions: plain residues with an end cap or a label only (N-terminal biotin on a linker: ado-ado).
T12 sequence (O95049 375-456, limits assumed, looked up): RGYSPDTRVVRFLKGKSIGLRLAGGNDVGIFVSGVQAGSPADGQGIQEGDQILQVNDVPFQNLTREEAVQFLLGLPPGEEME
Design: key: below the threshold = too weak to quantify, mostly under pKd 3.1 to 4
With REEPDHSTEV [CCRL2, O00421] the pKd was “below the threshold”. In the case of QSYPSKHDYV [CLDN18, P56856], the pKd is reported as 4.02.
